Target: thin filaments of membrane-permeabilized (skinned) porcine ventricular myofibrils (pig (endogenous in porcine ventricular myofibrils)) (UniProt P42639)
Assay: co-sedimentation; 23 ± 3 uM IANBD-labeled Tn incubated 4 h on ice (or overnight) with skinned porcine myofibrils (~20 mg/ml) in hypotonic rigor buffer with 6 mM ATP and 1 mg/ml BSA; myofibrils pelleted at 1,000 x g and washed; labeled cTnC relative to total cTnC on 18% SDS-PAGE (fluorescence against Coomassie)

UniProt P42639, sequence (P42639 whole entry, looked up): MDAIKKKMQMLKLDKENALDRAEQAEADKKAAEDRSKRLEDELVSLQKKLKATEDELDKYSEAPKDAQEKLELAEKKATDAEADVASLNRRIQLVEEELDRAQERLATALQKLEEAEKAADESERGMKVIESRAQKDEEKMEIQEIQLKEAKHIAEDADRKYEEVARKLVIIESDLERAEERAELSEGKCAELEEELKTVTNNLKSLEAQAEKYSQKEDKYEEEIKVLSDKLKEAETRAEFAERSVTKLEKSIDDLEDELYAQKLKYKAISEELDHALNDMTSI

- extent of exchange (labeled cTnC relative to total cTnC in the myofibrils): 41%
Substance: human recombinant troponin complex containing IANBD-cTnC^T53C, wild-type cTnI and wild-type cTnT (from UniProt P63316 1-161; P19429 1-210)
